Laboratory results: patent US20240254250A1 (HARPOON THERAPEUTICS, published 2024)

Target: 253BH10 trispecific protein
Test: affinity measurement, method not stated

Sequence of 253BH10 trispecific protein (chain, as listed by the source limits assumed, form in doubt): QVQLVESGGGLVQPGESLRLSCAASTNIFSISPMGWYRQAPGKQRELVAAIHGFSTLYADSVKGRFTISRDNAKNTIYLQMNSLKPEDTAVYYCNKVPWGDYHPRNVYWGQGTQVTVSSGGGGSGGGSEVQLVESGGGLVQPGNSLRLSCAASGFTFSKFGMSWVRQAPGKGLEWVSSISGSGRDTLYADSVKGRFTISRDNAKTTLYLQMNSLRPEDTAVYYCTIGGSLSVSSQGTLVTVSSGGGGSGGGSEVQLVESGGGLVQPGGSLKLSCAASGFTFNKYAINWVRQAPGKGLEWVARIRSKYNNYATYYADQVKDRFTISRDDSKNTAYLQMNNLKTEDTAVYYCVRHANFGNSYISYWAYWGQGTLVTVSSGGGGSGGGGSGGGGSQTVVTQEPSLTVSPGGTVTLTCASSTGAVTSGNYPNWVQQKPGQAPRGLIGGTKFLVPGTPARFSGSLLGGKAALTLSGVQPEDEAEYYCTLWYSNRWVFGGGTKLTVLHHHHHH

B1: human BCMA protein (receptor)
chain: MLQMAGQCSQNEYFDSLLHACIPCQLRCSSNTPPLTCQRYCNASVTNSVKGTNA
B1 showed a Kd of 27.7 nM.
